Experiments:
[1] = target: C-terminal region of RING1B (C-RING1B), residues 222–336, with C-terminal hexahistidine tag (human) (UniProt Q99496); assay: SPR
[2] = target: C-terminal region of RING1B (C-RING1B), residues 222–336, with C-terminal hexahistidine tag (human) (UniProt Q99496); assay: native gel or EMSA
[3] = target: RING1B C-terminal domain (C-RING1B) (Homo sapiens) (UniProt Q99496); conditions: cited from earlier work
[4] = target: cbx7 cbox domain with C-terminal hexahistidine tag (human); assay: AUC

MBP–cbx7 cbox domain fusion protein (from UniProt O95931 1-251) (domain or fragment)
Kd [1]: 9.2 nM

MBP–cbx6 cbox domain fusion protein (from UniProt O95503 1-412) (domain or fragment)
Kd [1]: 180 nM

cbx6 cbox domain (domain or fragment)
stoichiometry N [2]: 1

MBP–cbx8 cbox domain fusion protein (from UniProt Q9HC52 1-389) (domain or fragment)
Kd [1]: 180 nM

MBP–Drosophila Pc cbox domain fusion protein (from UniProt P26017 1-390) (domain or fragment)
Kd [1]: 38 nM

RING1B C-terminal domain (C-RING1B) (from UniProt Q99496)
Kd [3]: 200000 nM

B1: C-RING1B (residues 222–336) with C-terminal SRD sequence, coexpressed with the cbx7 cbox domain (domain or fragment)
chain: MEKTRGASEIELVFRPHPTLMEKDDSAQTRYIKTSGNATVDHLSKYLAVRLALEELRSKGESNQMNLDTASEKQYTIYIATASGQFTVLNGSFSLELVSEKYWKVNKPMELYYAPTKEHKSRD
stoichiometry N [4]: 1

Reference: article PMC4442619
